Source: paper PMC7367873, “Dissecting the sequence determinants for dephosphorylation by the catalytic subunits of phosphatases PP1 and PP2A” (Nature Communications, 2020)

Molecular target: T1, PP1c (Homo sapiens, UniProt P62136)
T1 construct: His tag with TEV site (N, cleaved yes); intein (pTXB1) (C, cleaved yes); made in house; host or cells: E. coli BL21Star(DE3)pRARE
Assay: Phosphopeptide library dephosphorylation followed by mass spectrometry (PLDMS), PP1c
Type: biochemical
Conditions: all libraries, 25 nM PP1c, 100 µM library, 2 min, 25 °C, pH 7.5; library distribution 60% Ser to 40% Thr
Excerpt: In order to determine phosphatase specificity on the phosphopeptide level, we developed an in vitro phosphopeptide library dephosphorylation followed by mass spectrometry approach (PLDMS, Fig. 1a; see the methods for details). In this approach, phosphopeptide libraries would be treated with PP1, PP2A, or left untreated, purified, and analyzed by LC-MS/MS measurements. In the first step, design, synthesis, and validation of phosphopeptide libraries were required. The phosphopeptide libraries were designed to yield an even distribution of amino acids in the different randomized positions and to give high coupling efficiency during synthesis, thus reducing the number of by-products. […]
The individual libraries were incubated with recombinant PP1c or PP2Ac (Supplementary Fig. 1a) and the reaction was stopped by shifting the pH from 7.5 to 3 when 30–50% of the library was dephosphorylated, depending on phosphatase activity (see the methods for details, Supplementary Fig. 1b). Peptides were then separated from the recombinant protein by size-exclusion chromatography (SEC) (Supplementary Fig. 1c) and analyzed by LC-MS/MS (Fig. 1a). […]
For LC-MS analysis, the treated/ctrl peptide libraries were purified by SEC. […] A 0.1 M ammonium acetate buffer (pH 5) was used throughout the column equilibration and purification and the elution profile was recorded at 280 nm. […]

T1 sequence (P62136 whole entry): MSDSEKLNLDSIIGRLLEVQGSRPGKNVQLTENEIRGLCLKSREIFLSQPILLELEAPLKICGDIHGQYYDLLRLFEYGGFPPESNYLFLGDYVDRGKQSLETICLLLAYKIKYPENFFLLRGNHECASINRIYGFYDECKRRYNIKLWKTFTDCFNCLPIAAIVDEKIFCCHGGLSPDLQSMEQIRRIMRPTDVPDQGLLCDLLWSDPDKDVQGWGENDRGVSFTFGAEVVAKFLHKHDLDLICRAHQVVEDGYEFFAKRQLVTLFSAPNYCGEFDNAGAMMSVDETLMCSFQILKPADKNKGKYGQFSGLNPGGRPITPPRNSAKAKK

pThr share of all sites dephosphorylated by PP1c: 73%
Substance: PP1c: recombinant catalytic subunit of PP1
